Experimental data from the supplement of paper PMC6757056.
± gives the standard deviation of the averaged measurements.

B1: library; a variant is named by its letters at N, in order (parent)
chain: GCUGUCACCGGUGUAUUACCCUAGUGGUCGACCGGUCUGAUGAGUCUNNNNNNAGACGAAACAGC

How the values were obtained:
hypoxanthine [1] = variants of: B1; experiment: FACS-Seq fitted mean relative fluorescence mCherry/BFP without ligand (log10 relative fluorescence); ligand: hypoxanthine (xanthine aptamer); higher = higher reporter protein expression; details: HEK293T, ligand present: no
In short: (§1)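 To measure fluorescence, a normal distribution was fitted to read counts across sorted bins. The reporter libraries were HEK293T cells transduced by lentivirus with mCherry under ribozyme-switch control and an EF1α-BFP marker, enriched and then kept with or without ligand for 48 h. Sorting used 6 mCherry/BFP bins, and bin genomic DNA was PCR-amplified and sequenced on MiSeq. Fitted means of log10(mCherry/BFP) were scaled to five spiked-in control ribozymes.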

hypoxanthine [2] = variants of: B1; experiment: normalized RNA/DNA level with ligand (relative to sTRSVctl = 100) (log10 (% of sTRSVctl)); ligand: hypoxanthine (xanthine aptamer); higher = less ribozyme self-cleavage, higher mRNA level; details: ligand concentration (+) RNA-Seq: 5 mM, HEK293T, reporter: mCherry (pCS4076), ligand present: yes
Experimental: (§2)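 Hammerhead (sTRSV) ribozyme switch libraries with a ligand aptamer grafted on stem I and a randomized N4-6 loop II, cloned into the 3' UTR of mCherry and transiently transfected into HEK293T cells; RNA-Seq 72 h post transfection with ligand added 1 h before transfection; RNA read count / plasmid DNA read count normalized to the non-cleaving sTRSVctl (x100), log10; sequences with >100 DNA reads. FACS-Seq: lentiviral library sorted into 6 bins after 48 h ligand, log-normal fit mean of mCherry/BFP scaled to controls. Printed sequences are partial switch sequences.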

hypoxanthine [3] = variants of: B1; experiment: normalized RNA/DNA level without ligand (relative to sTRSVctl = 100) (log10 (% of sTRSVctl)); ligand: hypoxanthine (xanthine aptamer); higher = less ribozyme self-cleavage, higher mRNA level; details: HEK293T, reporter: mCherry (pCS4076), ligand present: no
Experimental: as §2

hypoxanthine [4] = variants of: B1; experiment: FACS-Seq fitted mean relative fluorescence mCherry/BFP with ligand (log10 relative fluorescence); ligand: hypoxanthine (xanthine aptamer); ligand concentration (+) FACS-Seq: 5 mM; higher = higher reporter protein expression; details: HEK293T, ligand present: yes
In short: as §1

| Variant | FACS-Seq fitted mean (log10) (hypoxanthine [1]) | normalized RNA/DNA level with ligand (log10) (hypoxanthine [2]) | normalized RNA/DNA level without ligand (log10) (hypoxanthine [3]) | FACS-Seq fitted mean (log10) (hypoxanthine [4]) |
| --- | --- | --- | --- | --- |
| GAUCGG | 0.125 ± 0.0082 | 1.911 ± 0.012 | 1.59 ± 0.07 | 0.418 ± 0.018 |
| ACAAAA | 0.4 ± 0.17 | 1.904 ± 0.0062 | 1.81 ± 0.021 | 0.1925 ± 0.0013 |
| UAUUCA | 0.158 ± 0.15 | 1.942 ± 0.0084 | 1.925 ± 0.0052 | 0.144 ± 0.082 |
| UAUAGU | 0.0206 ± 0.046 | 1.86 ± 0.029 | 1.57 ± 0.063 | 0.131 ± 0.037 |
| AAUUUG | 0.3 ± 0.021 | 1.873 ± 0.012 | 1.57 ± 0.046 | 0.468 ± 0.064 |
| CCAAAC | 0.763 ± 0.049 | 1.93 ± 0.038 | 1.875 ± 0.012 | 0.528 ± 0.086 |
| CAUGCG | 0.687 ± 0.064 | 1.92 ± 0.049 | 1.91 ± 0.082 | 0.645 ± 0.005 |
| CAUGCU | 0.614 ± 0.036 | 1.97 ± 0.039 | 1.904 ± 0.013 | 0.529 ± 0.073 |
| AAUGUA | 0.284 ± 0.0037 | 1.9 ± 0.088 | 1.79 ± 0.047 | 0.204 ± 0.0096 |
| AAUGUU | 0.678 ± 0.033 | 1.9 ± 0.072 | 1.85 ± 0.038 | 0.605 ± 0.077 |
| AAUGUG | 0.203 ± 0.0069 | 1.82 ± 0.026 | 1.39 ± 0.05 | 0.573 ± 0.036 |
| AAUAAG | 0.306 ± 0.0098 | 1.83 ± 0.024 | 1.473 ± 0.005 | 0.638 ± 0.04 |
| AAUAAA | 0.416 ± 0.064 | 1.872 ± 0.014 | 1.756 ± 0.011 | 0.252 ± 0.092 |
| AAUAAU | 0.172 ± 0.059 | 1.89 ± 0.022 | 1.75 ± 0.021 | 0.376 ± 0.046 |
| AAUACA | 0.346 ± 0.053 | 1.88 ± 0.05 | 1.801 ± 0.0096 | 0.496 ± 0.0044 |
| AAUACC | 0.491 ± 0.22 | 1.933 ± 0.019 | 1.895 ± 0.0024 | 0.448 ± 0.018 |
| AAUACG | 0.407 ± 0.1 | 1.844 ± 0.01 | 1.44 ± 0.067 | 0.609 ± 0.057 |
| UAGUGG | 0.242 ± 0.04 | 1.861 ± 0.015 | 1.41 ± 0.019 | 0.511 ± 0.035 |
| UAGUGU | 0.0263 ± 0.029 | 1.9 ± 0.065 | 1.45 ± 0.063 | 0.449 ± 0.12 |
| UAGUGA | 0.153 ± 0.015 | 1.88 ± 0.033 | 1.57 ± 0.041 | 0.438 ± 0.039 |
| AAGUGA | -0.0239 ± 0.018 | 1.81 ± 0.02 | 1.47 ± 0.019 | 0.0676 ± 0.035 |
| AAGUGU | 0.111 ± 0.029 | 1.89 ± 0.046 | 1.571 ± 0.015 | 0.229 ± 0.011 |
| AAGUGG | 0.227 ± 0.067 | 1.57 ± 0.1 | 1.093 ± 0.0029 | 0.765 ± 0.065 |
| AAUGGG | 0.049 ± 0.035 | 1.77 ± 0.052 | 1.25 ± 0.063 | 0.547 ± 0.047 |

| Variant | FACS-Seq fitted mean (log10) (hypoxanthine [1]) | normalized RNA/DNA level with ligand (log10) (hypoxanthine [2]) | normalized RNA/DNA level without ligand (log10) (hypoxanthine [3]) | FACS-Seq fitted mean (log10) (hypoxanthine [4]) |
| --- | --- | --- | --- | --- |
| AAUGGA | 0.265 ± 0.081 | 1.88 ± 0.022 | 1.61 ± 0.038 | 0.192 ± 0.36 |
| UAUACA | 0.641 ± 0.013 | 1.93 ± 0.053 | 1.854 ± 0.012 | 0.518 ± 0.019 |
| UAUACU | 0.344 ± 0.0075 | 1.93 ± 0.05 | 1.84 ± 0.065 | 0.343 ± 0.066 |
| CAUUGA | 0.221 ± 0.12 | 1.912 ± 0.0057 | 1.82 ± 0.053 | 0.32 ± 0.0063 |
| UAUUAC | 0.513 ± 0.025 | 1.9 ± 0.054 | 1.823 ± 0.018 | 0.512 ± 0.011 |
| UAUUAU | 0.643 ± 0.015 | 1.93 ± 0.023 | 1.8 ± 0.028 | 0.594 ± 0.024 |
| UAUUAA | 0.486 ± 0.054 | 1.89 ± 0.0083 | 1.86 ± 0.022 | 0.724 ± 0.088 |
| UAGUCC | 0.327 ± 0.0056 | 1.97 ± 0.067 | 1.92 ± 0.023 | 0.646 ± 0.091 |
| UAGUCA | 0.551 ± 0.061 | 1.944 ± 0.0025 | 1.853 ± 0.006 | 0.647 ± 0.03 |
| AAUUCA | 0.486 ± 0.061 | 1.93 ± 0.049 | 1.86 ± 0.025 | 0.567 ± 0.082 |
| AAUUCG | 0.321 ± 0.022 | 1.9 ± 0.041 | 1.52 ± 0.043 | 0.729 ± 0.034 |
| GAUGUU | 0.33 ± 0.0059 | 1.914 ± 0.017 | 1.841 ± 0.0059 | 0.447 ± 0.029 |
| GAUGUG | 0.2 ± 0.026 | 1.82 ± 0.019 | 1.31 ± 0.06 | 0.673 ± 0.077 |
| CAUUUC | 0.66 ± 0.057 | 1.92 ± 0.043 | 1.9 ± 0.069 | 0.774 ± 0.066 |
| CAUUUA | -0.0161 ± 0.022 | 1.98 ± 0.036 | 1.77 ± 0.034 | 0.532 ± 0.019 |
| CAUAAU | 0.515 ± 0.078 | 1.88 ± 0.059 | 1.793 ± 0.011 | 0.559 ± 0.061 |
| CAUAAA | 0.609 ± 0.07 | 1.89 ± 0.038 | 1.735 ± 0.01 | 0.597 ± 0.038 |
| GAUUCG | -0.06 ± 0.056 | 1.906 ± 0.0054 | 1.54 ± 0.021 | 0.357 ± 0.021 |
| AAGUCG | -0.00018 ± 0.0075 | 1.79 ± 0.11 | 1.187 ± 0.0065 | 0.661 ± 0.016 |
| AAGUCU | -0.27 ± 0.07 | 1.91 ± 0.046 | 1.84 ± 0.053 | -0.266 ± 0.014 |
| AAGUUG | -0.243 ± 0.014 | 1.626 ± 0.013 | 1.12 ± 0.013 | 0.435 ± 0.052 |
| AAGUUA | -0.098 ± 0.017 | 1.89 ± 0.02 | 1.613 ± 0.013 | 0.476 ± 0.07 |
| AAGUUU | -0.231 ± 0.049 | 1.898 ± 0.012 | 1.87 ± 0.023 | -0.254 ± 0.013 |
| UAUGUC | -0.423 ± 0.035 | 1.944 ± 0.011 | 1.95 ± 0.053 | -0.356 ± 0.048 |

| Variant | FACS-Seq fitted mean (log10) (hypoxanthine [1]) | normalized RNA/DNA level with ligand (log10) (hypoxanthine [2]) | normalized RNA/DNA level without ligand (log10) (hypoxanthine [3]) | FACS-Seq fitted mean (log10) (hypoxanthine [4]) |
| --- | --- | --- | --- | --- |
| UAUGUG | -0.0408 ± 0.016 | 1.91 ± 0.022 | 1.7 ± 0.034 | 0.0665 ± 0.031 |
| GAUAUG | 0.0367 ± 0.045 | 1.85 ± 0.029 | 1.39 ± 0.017 | 0.215 ± 0.097 |
| GAUAUA | 0.804 ± 0.057 | 1.91 ± 0.034 | 1.8 ± 0.061 | 0.741 ± 0.0099 |
| AAUUGG | 0.22 ± 0.02 | 1.872 ± 0.014 | 1.405 ± 0.0046 | 0.658 ± 0.036 |
| AAUUGA | -0.0788 ± 0.062 | 1.9 ± 0.041 | 1.73 ± 0.018 | -0.112 ± 0.16 |
| AAUUAA | 0.435 ± 0.032 | 1.893 ± 0.0034 | 1.764 ± 0.0032 | 0.276 ± 0.14 |
| AAUUAG | 0.404 ± 0.012 | 1.86 ± 0.037 | 1.52 ± 0.032 | 0.681 ± 0.03 |
| AAUUAC | 0.511 ± 0.13 | 1.96 ± 0.04 | 1.823 ± 0.016 | 0.516 ± 0.022 |
| AAUGAU | 0.38227 ± 0.00021 | 1.88 ± 0.041 | 1.683 ± 0.0061 | 0.571 ± 0.06 |
| AAUGAG | 0.0392 ± 0.012 | 1.81 ± 0.039 | 1.3 ± 0.022 | 0.472 ± 0.044 |
| AAUGAC | 0.585 ± 0.07 | 1.894 ± 0.0079 | 1.83 ± 0.049 | 0.5447 ± 0.0044 |
| AAUGCG | -0.0193 ± 0.038 | 1.85 ± 0.03 | 1.42 ± 0.089 | 0.462 ± 0.044 |
| AAUGCA | 0.304 ± 0.078 | 1.9039 ± 0.0013 | 1.772 ± 0.012 | 0.563 ± 0.029 |
| GAUGGA | 0.4617 ± 0.0039 | 1.913 ± 0.0011 | 1.67 ± 0.036 | 0.698 ± 0.029 |
| GAUGGG | -0.0971 ± 0.21 | 1.81 ± 0.025 | 1.3 ± 0.053 | 0.3779 ± 0.0029 |
| GAUGGU | 0.501 ± 0.024 | 1.95 ± 0.07 | 1.76 ± 0.022 | 0.748 ± 0.062 |
| GAUGGC | 0.369 ± 0.012 | 1.89 ± 0.016 | 1.598 ± 0.0036 | 0.596 ± 0.041 |
| GAUGAA | 0.529 ± 0.025 | 1.886 ± 0.0083 | 1.711 ± 0.013 | 0.52 ± 0.051 |
| GAUGAU | 0.537 ± 0.094 | 1.91 ± 0.05 | 1.767 ± 0.015 | 0.495 ± 0.025 |
| GAUGAG | 0.0708 ± 0.0074 | 1.74 ± 0.028 | 1.3 ± 0.067 | 0.572 ± 0.047 |
| GAUGAC | 0.654 ± 0.023 | 1.92 ± 0.02 | 1.72 ± 0.023 | 0.526 ± 0.07 |
| CAUUAU | 0.7325 ± 0.0015 | 1.9 ± 0.08 | 1.8 ± 0.021 | 0.778 ± 0.098 |
| CAUUAA | 0.176 ± 0.0055 | 1.87 ± 0.071 | 1.712 ± 0.015 | 0.306 ± 0.052 |
